Measurements from the supplement of paper PMC7877785.
± gives the uncertainty stated by the source.

Test: self-splicing fitness, log relative to wild type (ln ratio); higher = more splicing; Tetrahymena group I intron in knt gene, E. coli kanamycin selection, DiMSum; sequences stand for … in CUCUCU…GGAGGGAAAAGUUAUCAGGCAUGCACCUGGUAGCUAGUCUUUAAACCAAUAGAUUGCAUCGGUUUAAAAGGCAAGACCGUCAAAUUGCGGGAAAGGGGUCAACAGCCGUUCAGUACCAAGUCUCAGGGGAAACUUUGAGAUGGCCUUGCAAAGGGUAUGGUAAUAAGCUGACGGACAUGGUCCUAACCACGCAGCCAAGUCCUAAGUCAACAGAUCUUCUGUUGAUAUGGAUGCAGUUCACAGACUAAAUGUCGGUCGGGGAAGAUGUAUUCUUCUCAUAAGAUAUAGUCGGACCUCUCCUUAAUGGGAGCUAGCGGAUGAAGUGAUGCAACACUGGAGCCGCUGGGAACUAAUUUGUAUGCGAAAGUAUAUUGAUUAGUUUUGGAGUACUCGUGGUCG
Summary of the method: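 Fitness was computed with DiMSum as the error-weighted combination of replicate fold changes, kanamycin versus none, each normalised to wild type. The library randomised all eight intron nucleotides of the P1ex region, with the intron placed in the knt kanamycin-resistance gene on pET-22b(+) in E. coli BL21(DE3). Six replicate transformations were grown overnight at 37°C or 30°C on LB agar with or without 25 μg/mL kanamycin, plus 100 μg/mL carbenicillin, 50 μM IPTG and 0.2% rhamnose. Pooled colonies were amplicon-sequenced on an Illumina HiSeq 2500.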

Row | Sequence | self-splicing fitness (ln) (30 °C) | self-splicing fitness (ln) (37 °C)
1 | ACUUAGCAAUAUUACGGCCU | -0.24 ± 0.1 | 0.312 ± 0.11
2 | UAUUAGCAAUAUUACGGAGC | -2.4 ± 0.42 | –
3 | AUAGAGCAAUAUUACGUCUC | -0.924 ± 0.15 | -0.745 ± 0.16
4 | UAGAAGCAAUAUUACGCGAG | -0.342 ± 0.12 | -0.636 ± 0.12
5 | CUAAAGCAAUAUUACGACGA | -2.38 ± 0.13 | -0.919 ± 0.15
6 | GAGCAGCAAUAUUACGACGU | -0.383 ± 0.072 | -0.812 ± 0.079
7 | CCAUAGCAAUAUUACGGAAU | -1.22 ± 0.15 | -2.38 ± 0.2
8 | ACCUAGCAAUAUUACGCUUC | -1.2 ± 0.1 | -1.1 ± 0.11
9 | ACUAAGCAAUAUUACGGGAG | -2.5 ± 0.11 | -1.88 ± 0.14
10 | AUGGAGCAAUAUUACGGCAG | -3.04 ± 0.34 | -1.73 ± 0.5
11 | UUAAAGCAAUAUUACGGUUA | 0.31 ± 0.069 | -0.0607 ± 0.072
12 | UUGAAGCAAUAUUACGAUGG | -0.452 ± 0.07 | 0.232 ± 0.1
13 | UUGCAGCAAUAUUACGGUGA | -1.44 ± 0.14 | 0.0799 ± 0.14
14 | AGGAAGCAAUAUUACGUAGC | – | -1.62 ± 0.28
15 | AUAGAGCAAUAUUACGAACG | -2.4 ± 0.21 | -0.83 ± 0.19
16 | AACAAGCAAUAUUACGACCU | 0.219 ± 0.086 | 0.125 ± 0.1
17 | CUAGAGCAAUAUUACGAAUA | -3.49 ± 0.48 | -1.86 ± 0.34
18 | CCGUAGCAAUAUUACGAUAA | -4.17 ± 0.39 | -1.99 ± 0.28
19 | CCCGAGCAAUAUUACGCAGC | – | -2.05 ± 0.42
20 | AAAGAGCAAUAUUACGCGGG | -4.16 ± 0.28 | -3.54 ± 0.33
21 | AAAGAGCAAUAUUACGACCA | -1.98 ± 0.18 | –
22 | CAGAAGCAAUAUUACGGGGC | -3.13 ± 0.17 | -2.89 ± 0.27
23 | UCCGAGCAAUAUUACGGGGC | -4.28 ± 0.23 | -2.8 ± 0.17
24 | CGCUAGCAAUAUUACGUGGA | -3.16 ± 0.2 | -2.33 ± 0.18
25 | GGAUAGCAAUAUUACGAUGA | -1.04 ± 0.15 | -0.858 ± 0.14

Row | Sequence | self-splicing fitness (ln) (30 °C) | self-splicing fitness (ln) (37 °C)
26 | UCGGAGCAAUAUUACGAGUC | – | -0.017 ± 0.39
27 | CUAAAGCAAUAUUACGACUG | 0.0292 ± 0.098 | 0.417 ± 0.12
28 | CUCAAGCAAUAUUACGCUUC | -2.35 ± 0.26 | -2.7 ± 0.26
29 | CUCUAGCAAUAUUACGCGUG | -3.84 ± 0.22 | -3.01 ± 0.19
30 | UUUGAGCAAUAUUACGGGCU | -2.89 ± 0.34 | -2.86 ± 0.41
31 | CACUAGCAAUAUUACGCAAC | – | -2.5 ± 0.29
32 | CGUUAGCAAUAUUACGGCAG | -0.122 ± 0.1 | 0.3 ± 0.12
33 | AGUUAGCAAUAUUACGAUUG | -3.3 ± 0.27 | -1.84 ± 0.24
34 | UAUAAGCAAUAUUACGCCUU | -1.31 ± 0.1 | -0.179 ± 0.12
35 | CGUCAGCAAUAUUACGUAGU | -2.26 ± 0.12 | -1.24 ± 0.13
36 | UCGGAGCAAUAUUACGGGUA | – | -1.76 ± 0.45
37 | CGGAAGCAAUAUUACGGCGG | -0.184 ± 0.1 | 0.177 ± 0.13
38 | AUUUAGCAAUAUUACGGUCU | -0.911 ± 0.1 | -0.391 ± 0.15
39 | UUGGAGCAAUAUUACGGGCG | -3.99 ± 0.39 | -2.13 ± 0.31
40 | AUUUAGCAAUAUUACGCUAU | -3.64 ± 0.3 | -0.748 ± 0.23
41 | AGUAAGCAAUAUUACGACGU | -0.0587 ± 0.09 | -0.132 ± 0.087
42 | GCUCAGCAAUAUUACGCGCA | -1.77 ± 0.13 | -0.106 ± 0.13
43 | UUCCAGCAAUAUUACGCUUG | -2.97 ± 0.21 | -1.94 ± 0.22
44 | ACAGAGCAAUAUUACGCGGC | -3.41 ± 0.3 | -2.18 ± 0.37
45 | CAACAGCAAUAUUACGCUCA | -1.15 ± 0.096 | -1.4 ± 0.12
46 | GCGCAGCAAUAUUACGGGGG | -2.2 ± 0.12 | -1.4 ± 0.12
47 | CACCAGCAAUAUUACGGUGU | -3.39 ± 0.11 | -1.82 ± 0.12
48 | UCAGAGCAAUAUUACGGAGA | -2.08 ± 0.15 | -1.93 ± 0.17
49 | AACAAGCAAUAUUACGAUGU | -1.64 ± 0.077 | -0.411 ± 0.094
50 | CAGAAGCAAUAUUACGUCGG | -1.61 ± 0.14 | -0.979 ± 0.2

Row | Sequence | self-splicing fitness (ln) (30 °C) | self-splicing fitness (ln) (37 °C)
51 | AAAAAGCAAUAUUACGGCCG | -0.279 ± 0.092 | 0.159 ± 0.13
52 | CGUCAGCAAUAUUACGUACA | -0.533 ± 0.072 | 0.154 ± 0.087
53 | UGCGAGCAAUAUUACGCGUG | -4.3 ± 0.42 | -1.12 ± 0.25
54 | CCUGAGCAAUAUUACGCUAU | -3.66 ± 0.2 | -3.09 ± 0.19
55 | CGCUAGCAAUAUUACGUAUA | -3.36 ± 0.15 | -2.55 ± 0.16
56 | GGAGAGCAAUAUUACGCUUA | -2.12 ± 0.14 | -0.41 ± 0.14
57 | CAAAAGCAAUAUUACGACCA | -1.95 ± 0.2 | -1.48 ± 0.19
58 | UCUGAGCAAUAUUACGUUGC | -3.64 ± 0.28 | –
59 | UGACAGCAAUAUUACGACAC | -0.678 ± 0.12 | -2.04 ± 0.17
60 | UUUAAGCAAUAUUACGAAAG | -3.48 ± 0.32 | -1.54 ± 0.25
61 | UGACAGCAAUAUUACGCUAG | -1.37 ± 0.076 | -0.358 ± 0.11
62 | UCAUAGCAAUAUUACGAGCC | – | -1.76 ± 0.49
63 | CGGUAGCAAUAUUACGUCCU | -0.294 ± 0.063 | 0.121 ± 0.08
64 | CGGAAGCAAUAUUACGACUC | -0.372 ± 0.081 | -1.1 ± 0.08
65 | AACAAGCAAUAUUACGGUGA | -0.546 ± 0.059 | -0.765 ± 0.073
66 | AGUCAGCAAUAUUACGGGCG | -0.963 ± 0.093 | 0.189 ± 0.13
67 | AGUGAGCAAUAUUACGGACU | -1.28 ± 0.12 | -0.761 ± 0.13
68 | CUCAAGCAAUAUUACGUAUU | -3.74 ± 0.19 | -2.58 ± 0.21
69 | UACUAGCAAUAUUACGGAUG | -0.926 ± 0.077 | -0.112 ± 0.11
70 | GCACAGCAAUAUUACGGGUC | -3.81 ± 0.17 | -1.62 ± 0.097
71 | CCACAGCAAUAUUACGCCGU | -2.9 ± 0.24 | -1.87 ± 0.24
72 | UCUGAGCAAUAUUACGUAAC | -3.44 ± 0.33 | -1.55 ± 0.2
73 | GCGAAGCAAUAUUACGCUCG | -2.95 ± 0.29 | -2.12 ± 0.27
74 | UGCAAGCAAUAUUACGCUAU | -2.7 ± 0.088 | -1.49 ± 0.088
75 | GCCAAGCAAUAUUACGCAUG | -4.41 ± 0.46 | -2.22 ± 0.3

Row | Sequence | self-splicing fitness (ln) (30 °C) | self-splicing fitness (ln) (37 °C)
76 | CAUUAGCAAUAUUACGGUGC | -4.19 ± 0.31 | -2.34 ± 0.3
77 | GUGUAGCAAUAUUACGAUUA | -1.58 ± 0.27 | 0.0491 ± 0.2
78 | AUUUAGCAAUAUUACGUGAA | -2.53 ± 0.14 | -0.614 ± 0.12
79 | CCCUAGCAAUAUUACGGUGA | -2.53 ± 0.11 | -1.23 ± 0.094
80 | GGGAAGCAAUAUUACGUUGU | -3.23 ± 0.22 | -2.31 ± 0.29
81 | GAAUAGCAAUAUUACGGCCC | -0.303 ± 0.14 | 0.174 ± 0.21
82 | UCACAGCAAUAUUACGGUCG | -0.0254 ± 0.054 | 0.119 ± 0.061
83 | UCGCAGCAAUAUUACGAUGG | -0.799 ± 0.061 | -0.226 ± 0.084
84 | CACAAGCAAUAUUACGUUCG | -0.461 ± 0.048 | 0.012 ± 0.06
85 | CCAGAGCAAUAUUACGGAGA | -2.38 ± 0.26 | –
86 | GAAAAGCAAUAUUACGAGUC | -2.16 ± 0.15 | -0.233 ± 0.1
87 | CCCCAGCAAUAUUACGCAGU | -3.25 ± 0.12 | -2.71 ± 0.15
88 | AUCGAGCAAUAUUACGAUCC | -2.13 ± 0.46 | –
89 | UAGCAGCAAUAUUACGGGGG | -3.44 ± 0.29 | -2.98 ± 0.29
90 | UUUUAGCAAUAUUACGAGGU | -2.89 ± 0.43 | –
91 | CACGAGCAAUAUUACGUCGA | -2.23 ± 0.35 | -2.81 ± 0.26
92 | CGGCAGCAAUAUUACGCCCG | -2.32 ± 0.47 | –
93 | UGCAAGCAAUAUUACGCCCU | -0.189 ± 0.15 | 0.448 ± 0.14
94 | UCUUAGCAAUAUUACGAAUA | -3.59 ± 0.47 | -0.936 ± 0.17
95 | GGGGAGCAAUAUUACGUGAG | -1.74 ± 0.26 | -1.36 ± 0.2
96 | CAUUAGCAAUAUUACGAACC | -3.51 ± 0.46 | -1.98 ± 0.34
97 | CAGCAGCAAUAUUACGCACU | -0.834 ± 0.1 | -1.8 ± 0.12
98 | CGGGAGCAAUAUUACGUAUU | -4.48 ± 0.41 | -2.31 ± 0.37
99 | AGCUAGCAAUAUUACGCUAA | -1.97 ± 0.18 | -1.21 ± 0.12
